According to PMC3172369 (Biochemistry, 2011):

Columns and labels:
native gel or EMSA = target: the molecule itself; test: native gel or EMSA
crystal structure = target: the molecule itself; test: crystal structure

B1: Np-core labelled at Cys41 with a DyLight dye (domain or fragment, Xenopus laevis, UniProt P05221 11-124, looked up)
chain: LEKPVSLIWGCELNEQDKTFEFKVEDDEEKCEHQLALRTVCLGDKAKDEFNIVEIVTQEEGAEKSVPIATLKPSILPMATMVGIELTPPVTFRLKAGSGPLYISGQHVAMEEDY
modifications: DyLight 549-maleimide or DyLight 649-maleimide on Cys41
stoichiometry N (native gel or EMSA): 5

B2: human Npm2-core domain (T15-E122) (domain or fragment, UniProt Q86SE8 15-122, looked up)
chain: TTVLWGCELSQERRTWTFRPQLEGKQSCRLLLHTICLGEKAKEEMHRVEILPPANQEDKKMQPVTIASLQASVLPMVSMVGVQLSPPVTFQLRAGSGPVFLSGQERYE
stoichiometry N (crystal structure): 5
